For series [1], the target named is TdT (murine terminal deoxynucleotidyl transferase, single cysteine at position 182, conjugated to dNTP via amino acid ester linker) (Mus musculus) (UniProt P09838). To be noted: hydroxymethyl scar on 3'-terminal T base; dTTP ester-linker conjugate; same yield as natural unscarred primer.
For series [2] the target is unchanged. Put plainly: EMSA. The following applies: Linker 1 or 2 dTTP conjugate, 60 s; covalent primer-extension complex on SDS-PAGE gel shift.

In patent publication US20260132223 one finds activity (% extension in 1 s) and activity data, which are given here for two substances.

Some results are limits rather than exact numbers.

Sequence of TdT (murine terminal deoxynucleotidyl transferase, single cysteine at position 182, conjugated to dNTP via amino acid ester linker) (Mus musculus) (P09838 other isoform, or with tags, fused parts or gaps): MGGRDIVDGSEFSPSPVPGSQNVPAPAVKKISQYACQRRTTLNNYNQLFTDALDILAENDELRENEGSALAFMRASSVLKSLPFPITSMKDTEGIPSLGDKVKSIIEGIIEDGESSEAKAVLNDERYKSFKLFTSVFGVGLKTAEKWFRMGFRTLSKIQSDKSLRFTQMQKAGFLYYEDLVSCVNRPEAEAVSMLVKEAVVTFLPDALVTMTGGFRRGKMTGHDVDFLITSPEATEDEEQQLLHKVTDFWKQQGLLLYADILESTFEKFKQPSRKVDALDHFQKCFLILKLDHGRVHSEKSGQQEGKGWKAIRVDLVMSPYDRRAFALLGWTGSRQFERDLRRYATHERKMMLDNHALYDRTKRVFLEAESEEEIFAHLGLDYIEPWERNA

As for “primer with 3'-terminal hydroxymethyl-scarred dT”, the activity (% extension in 1 s) in series [1] was found to be 35. In the case of ssDNA primer, in series [2], the activity is above 95 % extension.
